Laboratory results from publication PMC8516035.

Key:
[1] = system: T1, phi13 CI, His-TEV tag cleaved (Staphylococcus aureus phage phi13), ORF:0019350b; experiment: EMSA
T1 sequence: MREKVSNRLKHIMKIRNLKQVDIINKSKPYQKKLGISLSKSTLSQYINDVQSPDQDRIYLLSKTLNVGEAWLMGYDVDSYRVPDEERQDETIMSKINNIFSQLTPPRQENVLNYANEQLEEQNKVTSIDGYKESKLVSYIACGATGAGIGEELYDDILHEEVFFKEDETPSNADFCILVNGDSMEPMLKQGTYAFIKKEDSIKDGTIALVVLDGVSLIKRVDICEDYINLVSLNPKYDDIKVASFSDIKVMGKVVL

[2] = system: phi13 rCI (CI repressor, N-terminal His-TEV) (Staphylococcus aureus phage phi13); experiment: EMSA; details: Binding buffer (as listed, possibly stock) 100 mM Tris-HCl, 5 mM EDTA, 500 mM NaCl, 5 mM DTT, 25% glycerol, plus BSA and sheared DNA; pH not stated; ~0.5 nM …
[3] = system: phi13 CI, His-TEV tag cleaved (Staphylococcus aureus phage phi13); experiment: EMSA; details: Binding buffer (as listed, possibly stock) 100 mM Tris-HCl, 5 mM EDTA, 500 mM NaCl, 5 mM DTT, 25% glycerol, plus BSA and sheared DNA; pH not stated; ~0.5 nM …
[4] = system: phi13 rCI (CI repressor, N-terminal His-TEV) (Staphylococcus aureus phage phi13); experiment: EMSA; details: Binding buffer (as listed, possibly stock) 100 mM Tris-HCl, 5 mM EDTA, 500 mM NaCl, 5 mM DTT, 25% glycerol, plus BSA and sheared DNA, pH not stated, ~0.5 nM …
[5] = biological target: ɸ13 rCI (recombinant CI repressor protein of phage ɸ13 with an N-terminal His-tag and TEV cleavage site) (S. aureus phage ɸ13); experiment: SEC; HiLoad 26/600 Superdex200 column; 20 mM Tris, 100 mM NaCl, pH 7.5; calibrated with Mw standards (Blue Dextran, Ferritin, Catalase, Aldolase, Carbonic Anhydrase, Aprotinin); tagged rCI after IMAC
[6] = apparent, free-probe loss, no specific band detected

“GTAATACGACTCACTATAGGATATACCGGTAGAGAAAATACACTTATATTTTTTTAAAGAAAAAGTTCATGTTATATGAACTTAAGGAGGGGCACAATGGAACAAATCACGGATCCGGTAACTTTCACACAAAAGG (double strand) [OD]” showed a Kd [1] of 0.012 µM.
For OR, the Kd [2] was 0.31 µM, the Kd [3] was 0.012 µM and the Kd [4] was 0.1 µM.
For OD, the Kd [2] was 0.015 µM, the Kd [3] was 0.012 µM and the Kd [4] was 0.0033 µM.
OL control gave a Kd [4, 6] of 0.69 µM.
OD control was tested, and the Kd [4, 6] was 0.9 µM.
In the case of OR control, the Kd [4, 6] is reported as 0.69 µM.
In the case of “GTAATACGACTCACTATAGGATAATAAAGCTTGTTGAACAAAAATTCAACAAAAAAGTTCATAAATCATGAATTTTTGTATTGACTTGATTCAAAACAAGGTGTAAAGTGGTAACTTTCACACAAAAGG (double strand) [OR]”, the Kd [1] is reported as 0.012 µM.
OL showed a Kd [2] of 0.022 µM, a Kd [3] of 0.012 µM and a Kd [4] of 0.0039 µM.
“ɸ13 rCI (recombinant CI repressor protein of phage ɸ13 with an N-terminal His-tag and TEV cleavage site)” gave a stoichiometry N [5] of 4.
“GTAATACGACTCACTATAGGGACTTGATTCAAAACAAGGTGTAAAGTATAGTTAAGTTCATGATACGTGAACTTGAGAGGAGGTGCTTTTATGTGTTACGACTACTCAGGTAACTTTCACACAAAAGG (double strand) [OL]” showed a Kd [1] of 0.012 µM.
